T1: cMSLN-His-Avi (cynomolgus, single biotin on the Avi tag in the biotinylated form)
T1 construct: Monomeric; also called cyno MSLN-His-Avi; cMSLN-Avi-His
T1 chain: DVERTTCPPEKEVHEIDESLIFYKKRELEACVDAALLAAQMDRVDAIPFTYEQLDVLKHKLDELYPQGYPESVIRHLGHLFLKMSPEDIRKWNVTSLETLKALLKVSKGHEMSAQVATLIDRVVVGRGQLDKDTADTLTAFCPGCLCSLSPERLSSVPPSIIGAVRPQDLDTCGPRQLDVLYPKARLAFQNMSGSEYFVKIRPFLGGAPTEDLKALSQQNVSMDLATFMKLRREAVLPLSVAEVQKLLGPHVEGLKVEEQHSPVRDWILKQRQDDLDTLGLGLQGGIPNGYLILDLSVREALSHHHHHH

T2: mMSLN-His-Avi (mouse, UniProt Q61468 298-600, single biotin on the Avi tag in the biotinylated form)
T2 construct: also called mouse MSLN-His-Avi
T2 sequence: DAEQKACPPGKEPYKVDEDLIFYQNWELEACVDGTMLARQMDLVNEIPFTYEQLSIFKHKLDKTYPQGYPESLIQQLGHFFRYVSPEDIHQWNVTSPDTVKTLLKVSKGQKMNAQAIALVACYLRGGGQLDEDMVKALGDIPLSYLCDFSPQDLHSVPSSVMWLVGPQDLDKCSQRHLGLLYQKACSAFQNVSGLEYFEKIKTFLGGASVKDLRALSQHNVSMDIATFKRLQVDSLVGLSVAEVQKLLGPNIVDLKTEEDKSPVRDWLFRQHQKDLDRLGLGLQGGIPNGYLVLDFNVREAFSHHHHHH


Experiments:
hMSLN-His-Avi [1] = target: T3, hMSLN-His-Avi (human, UniProt Q13421 296-598, single biotin on the Avi tag in the biotinylated form); experiment: ratio of SPR KDs
T3 construct: Monomeric; also called human MSLN-His-Avi; hMSLN-Avi-His
Procedure: (§1) 7.1 Binding of CD137/MSLN mAb2 to Human MSLN Under Avid Conditions—Antigen Capture Method Binding of all mAb^2 to MSLN immobilised on a BIAcore chip was tested to determine the binding affinity to human MSLN under avid conditions, where a high concentration of immobilised antigen is available to allow the antibody to bind avidly. […] The association time was 5 min and the dissociation time was 10 min. Running buffer was HBS-EP (GE Healthcare BR100188). Flow cells were regenerated by injecting Glycine-HCl pH1.5 at a flow rate of 30 μl/min for 30 seconds. Data were analysed by double referencing against a flow cell which was intentionally left blank (no antigen coating). The binding kinetics were fitted with a 1:1 Langmuir model to generate binding association (k_a) and dissociation (k_d) rates. Equilibrium binding constants (K_D) were calculated by dividing the dissociation rate by the association rate for each sample. Data analysis was performed with BiaEvaluation software version 3.2.
(§2) The association time was 5 min and the dissociation time was 5 min. Running buffer was HBS-EP (GE Healthcare BR100188). Flow cells were regenerated by injecting Glycine-HCl pH2.1 at a flow rate of 30 μl/min for 15 seconds. The data was analysed as described in Example 7.1.

[2] = target: human CD137 on primary human CD8+ T cells (human, UniProt Q07011 24-255); experiment: cell-based or functional assay
[3] = target: T4, endogenous cell surface human MSLN (human, UniProt Q13421 296-598); experiment: flow cytometry, NCI-H226 cells
T4 construct: whole, on cells; The cell line is named under assay; also called cell-surface MSLN on NCI-H226, OVCAR-3 and AsPC-1 cells
Procedure: (§3) To confirm binding to cell surface MSLN, mAb² listed in Table 9 were analysed for binding to endogenous cell surface MSLN on the human lung cancer cell line NCI-H226. In addition, and because MSLN can be found in blood in a shed soluble form, there is a risk that this circulating MSLN might affect exposure and ultimately potency of our mAb². To confirm that presence of soluble MSLN has minimal impact, additional binding experiments to NCI-H226 cells were performed in the presence of 20 nM soluble MSLN which is 10-20 times the level of soluble MSLN found to be of diagnostic value for defining malignant mesothelioma and lung cancer patients as MSLN positive (Cui et al., 2014). Briefly, NCI-H226 cells (ATCC CRL-5826) were harvested from T175 cell culture flasks using Accutase (Gibco, A11105-01).
(§4) In both cases, cells were centrifuged at 1200 rpm for 3 min and resuspended in ice cold FACS buffer made up of DPBS (Life Technologies, 14190169) and 1% BSA (Sigma-Aldrich, A7906) at 2×10⁶ cells/ml and 50 μl per well was seeded in a 96-well V-bottom plate (Costar, 3894). All antibodies tested were diluted in FACS buffer in 120 μl at a concentration range of 0.01-200 nM (4-fold dilutions). The NCI-H226 cells were then centrifuged, supernatant removed and cells resuspended in 100 μl of each mAb dilution and incubated at 4° C. for 45 min. Cells were washed twice by centrifugation with 150 μl FACS buffer, resuspended in 100 μl containing goat anti-human IgG (γ-chain specific) F(ab')2 fragment-R-Phycoerythrin antibody (Sigma, P8047) diluted 1:1000 in FACS buffer and incubated at 4° C. for 45 min. The cells were washed once with 150 μl FACS buffer and then with 150 μl DPBS, resuspended in 150 μl DPBS containing DAPI (Biotium, 40043) at 1:10.000 and read on the BDCantoII or iQue (Intellicyt).

[4] = target: T4, endogenous cell surface human MSLN; experiment: flow cytometry, NCI-H226 cells + 20 nM soluble MSLN
Procedure: as §3, §4

hMSLN-His-Avi [5] = target: T3, hMSLN-His-Avi; experiment: SPR, hMSLN-His-Avi immobilised ~100 RU, mAb2 injected
Procedure: as §1

cMSLN-His-Avi [6] = target: T1, cMSLN-His-Avi; experiment: SPR, mAb2 captured on Protein G, cMSLN-His-Avi in solution
Procedure: as §2

hMSLN-His-Avi [7] = target: T3, hMSLN-His-Avi; experiment: SPR, mAb2 captured on Protein G, hMSLN-His-Avi in solution
Procedure: as §2

hCD137-mFc-Avi = target: T5, hCD137-mFc-Avi (human; mouse, UniProt Q07011 24-186, one biotin on each Avi tag in the biotinylated form); experiment: SPR, mAb2 captured by anti-human Fab, hCD137-mFc-Avi in solution
T5 construct: also called human dimeric CD137; human CD137-mFc-Avi
Procedure: A Biacore CM5 chip was coated with anti-human Fab using a Human Fab Capture Kit (GE Healthcare 28958325) according to manufacturer's conditions, to a surface density of approximately 9000 RU. […] The association time was 5 min and the dissociation time was 5 min. Running buffer was HBS-EP. Flow cells were regenerated by injecting two repeat injections of 10 mM glycine-HCl at pH 2.1 at a flow rate of 30 μl/min for 30 seconds. Data analysis was performed as described in earlier examples (see e.g. Example 7.1).

mMSLN-His-Avi [8] = target: T2, mMSLN-His-Avi; experiment: ratio of SPR KDs
Procedure: (§5) To determine the affinity for soluble MSLN the mAb^2 was captured via an anti-human Fc. Briefly, 25 µg/ml anti-human IgG (Fc) antibody (GE Healthcare, Human Antibody Capture Kit, BR100839) was immobilised on a Biacore sensor chip CM5 (GE Healthcare, BR100530) achieving a final response of approximately 750 RU. The mAb^2 molecule, diluted in HBS-EP buffer (GE Healthcare, BR100188) at 50 nM, was injected individually at 30 µl/min to achieve a response of approximately 100 RU. The recombinant mMSLN-His-Avi antigen, diluted in HBS-EP buffer, was injected at a concentration range of 243 nM to 0.11 nM with 3-fold dilutions for 5 minutes at 70 µl/min and then allowed to dissociate in buffer for 5 minutes. Regeneration was achieved by injecting 3 M magnesium chloride (GE Healthcare, Human Antibody Capture Kit, BR100839) for 30 seconds at a rate of 30 µl/min.

mMSLN-His-Avi [9] = target: T2, mMSLN-His-Avi; experiment: SPR, mMSLN-His-Avi immobilised at 50 RU
mMSLN-His-Avi [10] = target: T2, mMSLN-His-Avi; experiment: SPR, mAb2 captured by anti-human Fc, mMSLN-His-Avi in solution
Procedure: as §5

cMSLN-His-Avi [11] = target: T1, cMSLN-His-Avi; experiment: SPR, mAb2 captured on Protein G, MSLN in solution
Procedure: as §2

T4 sequence (Q13421 other isoform, or with tags, fused parts or gaps limits assumed): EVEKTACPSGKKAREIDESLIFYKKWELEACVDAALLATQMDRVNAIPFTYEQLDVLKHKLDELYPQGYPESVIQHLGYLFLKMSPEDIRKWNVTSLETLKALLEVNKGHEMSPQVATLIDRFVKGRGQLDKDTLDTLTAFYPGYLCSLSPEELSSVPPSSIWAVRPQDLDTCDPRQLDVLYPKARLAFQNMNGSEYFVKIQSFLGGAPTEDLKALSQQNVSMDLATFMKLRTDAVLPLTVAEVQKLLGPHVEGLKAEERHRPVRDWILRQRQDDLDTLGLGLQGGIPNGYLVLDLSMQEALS
human CD137 on primary human CD8+ T cells, sequence (Q07011 24-255): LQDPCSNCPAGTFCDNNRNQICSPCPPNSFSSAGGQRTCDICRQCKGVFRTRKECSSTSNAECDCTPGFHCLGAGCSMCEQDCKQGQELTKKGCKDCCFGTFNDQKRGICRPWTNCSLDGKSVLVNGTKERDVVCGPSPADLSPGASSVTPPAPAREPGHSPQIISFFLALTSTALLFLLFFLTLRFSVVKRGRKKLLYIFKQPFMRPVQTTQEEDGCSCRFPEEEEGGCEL
T3 sequence (Q13421 other isoform, or with tags, fused parts or gaps): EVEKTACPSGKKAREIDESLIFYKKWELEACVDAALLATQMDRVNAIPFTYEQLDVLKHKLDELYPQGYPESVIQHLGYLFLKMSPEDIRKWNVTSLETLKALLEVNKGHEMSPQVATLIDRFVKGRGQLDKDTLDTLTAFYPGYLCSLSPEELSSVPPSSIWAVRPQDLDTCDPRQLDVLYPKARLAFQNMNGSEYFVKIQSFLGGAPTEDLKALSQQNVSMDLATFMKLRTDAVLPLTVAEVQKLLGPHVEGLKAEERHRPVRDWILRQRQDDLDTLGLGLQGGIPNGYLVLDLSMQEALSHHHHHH
T5 sequence (Q07011 24-186): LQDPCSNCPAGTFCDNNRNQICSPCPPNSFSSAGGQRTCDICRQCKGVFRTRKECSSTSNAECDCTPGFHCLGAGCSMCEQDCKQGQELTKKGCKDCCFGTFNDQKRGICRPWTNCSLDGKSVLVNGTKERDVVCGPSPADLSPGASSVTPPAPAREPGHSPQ

Row | Binder | KD ratio in solution/immobilised human MSLN (hMSLN-His-Avi [1]) | Emax (IL-2 pg/ml), NCI-H226 co-culture, Donor A [2] [pg/mL] | Emax (IL-2 pg/ml), NCI-H226 co-culture, Donor B [2] [pg/mL] | IL-2 release EC50, NCI-H226 co-culture, Donor A [2] [nM] | IL-2 release EC50, NCI-H226 co-culture, Donor B [2] [nM] | EC50 [3] [nM] | Emax (MFI) [3] [MFI] | EC50 [4] [nM] | Emax (MFI) [4] [MFI] | Kd (hMSLN-His-Avi [5]) [nM] | Kd (cMSLN-His-Avi [6]) [nM] | Kd (hMSLN-His-Avi [7]) [nM] | Kd (hCD137-mFc-Avi) [nM] | ratio of KD in solution/immobilised (mMSLN-His-Avi [8]) | Kd (mMSLN-His-Avi [9]) [nM] | Kd (mMSLN-His-Avi [10]) [nM] | fold less cross reactive compared to human MSLN (cMSLN-His-Avi [11]) [fold]
1 | FS22m-063-AA/FS28m-228 (bispecific antibody, human IgG1, kappa, L234A L235A, V domains shown, IgG1 mAb^2 with LALA; also called anti-mouse CD137/MSLN mAb^2) VH: EVQLLESGGGLVQPGGSLRLSCAASGFTFSTYFMVWVRQAPGKGLEWVSMISPKSSNTYYADSVKGRFTISRDNSKNTLYLQMNSLRAEDTAVYYCARWFTPARFDYWGQGTLVTVSS VL: EIVLTQSPGTLSLSPGERATLSCRASQSVSSSYLAWYQQKPGQAPRLLIYGASSRATGIPDRFSGSGSGTDFTLTISRLEPEDFAVYYCQQPFPFSFTFGQGTKVEIKR |  |  |  |  |  |  |  |  |  |  |  |  |  | 31.9 | 7.9 | 252 | 
2 | FS22-172-003-AA/FS28-024-060 (bispecific antibody, human IgG1, kappa, L234A L235A, V domains shown, IgG1 mAb^2 with LALA) VH: EVQLLESGGGLVQPGGSLRLSCAASGFTLSYSSMSWVRQAPGKGLEWVSFITPSTGYTHYADSVKGRFTISRDNSKNTLYLQMNSLRAEDTAVYYCARRALWFDYWGQGTLVTVSS VL: EIVLTQSPGTLSLSPGERATLSCRASQSVSSSYLAWYQQKPGQAPRLLIYGASSRATGIPDRFSGSGSGTDFTLTISRLEPEDFAVYYCQQASSYPLTFGQGTKVEIKR | 33 | 1400 | 1940 | 0.04 | 0.06 | 0.695 | 840000 | 4.69 | 930000 | 0.13 | 230 | 4.27 |  |  |  |  | 54

Second part, the binder after the results:

Row | KD ratio in solution/immobilised human MSLN (hMSLN-His-Avi [1]) | Emax (IL-2 pg/ml), NCI-H226 co-culture, Donor A [2] [pg/mL] | Emax (IL-2 pg/ml), NCI-H226 co-culture, Donor B [2] [pg/mL] | IL-2 release EC50, NCI-H226 co-culture, Donor A [2] [nM] | IL-2 release EC50, NCI-H226 co-culture, Donor B [2] [nM] | EC50 [3] [nM] | Emax (MFI) [3] [MFI] | EC50 [4] [nM] | Emax (MFI) [4] [MFI] | Kd (hMSLN-His-Avi [5]) [nM] | Kd (cMSLN-His-Avi [6]) [nM] | Kd (hMSLN-His-Avi [7]) [nM] | Kd (hCD137-mFc-Avi) [nM] | ratio of KD in solution/immobilised (mMSLN-His-Avi [8]) | Kd (mMSLN-His-Avi [9]) [nM] | Kd (mMSLN-His-Avi [10]) [nM] | fold less cross reactive compared to human MSLN (cMSLN-His-Avi [11]) [fold] | Binder
3 | 85 | 1070 | 1690 | 0.04 | 0.05 | 0.884 | 752000 | 3.64 | 799000 | 0.39 | 239 | 33.1 | 1.51 |  |  |  |  | FS22-172-003-AA/FS28-024-052 (bispecific antibody, human IgG1, kappa, L234A L235A, V domains shown, IgG1 mAb^2 with LALA) VH: EVQLLESGGGLVQPGGSLRLSCAASGFTLSYSSMSWVRQAPGKGLEWVSFITPSTGYTHYADSVKGRFTISRDNSKNTLYLQMNSLRAEDTAVYYCARRALLFDYWGQGTLVTVSS VL: EIVLTQSPGTLSLSPGERATLSCRASQSVSSSYLAWYQQKPGQAPRLLIYGASSRATGIPDRFSGSGSGTDFTLTISRLEPEDFAVYYCQQASSYPLTFGQGTKVEIKR
4 |  |  |  |  |  |  |  |  |  |  |  |  |  | 23.2 | 2.6 | 60.2 |  | FS22m-063-AA/FS28m-228-010 (bispecific antibody, human IgG1, kappa, L234A L235A, V domains shown, IgG1 mAb^2 with LALA) VH: EVQLLESGGGLVQPGGSLRLSCAASGFTFSTYFMVWVRQAPGKGLEWVSMISPKSSNTYYADSVKGRFTISRDNSKNTLYLQMNSLRAEDTAVYYCARYHISPRFDYWGQGTLVTVSS VL: EIVLTQSPGTLSLSPGERATLSCRASQSVSSSYLAWYQQKPGQAPRLLIYGASSRATGIPDRFSGSGSGTDFTLTISRLEPEDFAVYYCQQPFPFSFTFGQGTKVEIKR
